# Measurements published in PMC10180351, “Modulating Substrate Specificity of Rhizobium sp. Histamine Dehydrogenase through Protein Engineering for Food Quality Applications” (Molecules, 2023).
# Changes are numbered by the printed parent chain. In names and notes the source's numbering stands.
# B1: Rhizobium sp. Histamine Dehydrogenase (Rsp HDH) (Rhizobium sp. 4-9) (protein)
# chain: MRDNKYDILFEPVRIGPHIAKNRFYQVPHCNGGGYRDPSAAAAMRGIKSEGGWGVIFTEQTEMHHTSEITPFIELRLWEDKDIPGLRRMSDAMKVHGALAGIQLAYSGINGPNFYTKEVPLAPSALPIRTFTNDPVQARALDKQDIKNLRRWFVNAAKRSKIAGFDLICLYGAHGFGIFQHFLSRATNQRTDEYGGSLENRSRFAREVVEDIKEAVGDTTAITMRVSLDETIGELGFSNAEVREFVEMNANLPDLWDLAQGTWEDCSGPSRFKEEGAQEILVKGIRELSSKPVVGVGRFTSPDVMARMVRQGVLDFIGCARPSIADPFLPKKIEEGRIEDIRECIGCNICITGDMTMSISRCTQNPTFMEEWRKGWHPERMNAKGDSNTVLVVGAGPAGLEATRALSLRGYDVTLAEATTTLGGRVARERLLPGLSAWGRVVDYRQYQISQRTNVETYFDSRLTAEDVLGFGFEHVAIATGSHWRRDGVARQHVVPMPIDPSMTVWTPDDIMAKVHPENLSGKTVVVYDDDHYYMGGVMAEVMAKAGAKVILVTSSAYVSDWTRNTLEQGAIHVRLDDLGVDIRLNRGVTAIRAGEVETNCVYTGKRSAIGCDAVLMVASRTSEDQLFNDLIARQGDWPDAGIKSVKIIGDAAAPAPIAWATYAGHRYARELDTPDIGDDLPFRREVTQLEPA
# notes: full length (693 aa native), synthetic E. coli-optimised gene in pET28a(+), C-terminal 6xHis tag kept; E. coli BL21 Gold (DE3); IMAC purified; homodimer with 6-S-Cys-FMN, [4Fe-4S], ADP
# B2: Rhizobium sp. Histamine Dehydrogenase (Rsp HDH) (Rhizobium sp. 4-9; F72T) (protein)
# chain: B1 chain with F72T
# notes: as for B1
# B3: Rhizobium sp. Histamine Dehydrogenase (Rsp HDH) (Rhizobium sp. 4-9; N110V) (protein)
# chain: B1 chain with N110V
# notes: as for B1
# Tests used:
# [1] = biological target: T1, Rhizobium sp. Histamine Dehydrogenase (Rsp HDH) (Rhizobium sp. 4-9, UniProt Q60I59); test: WST-8 / 1-methoxy PMS colorimetric initial rate, […] nm, substrate inhibition fit; type: biochemical; settings: substrate inhibition by histamine itself; 1-methoxy PMS electron carrier; glycine buffer pH 9.0, 37 °C
# T1 construct: full length (693 aa native), synthetic E. coli-optimised gene in pET28a(+), C-terminal 6xHis tag kept; E. coli BL21 Gold (DE3); IMAC purified; homodimer with 6-S-Cys-FMN, [4Fe-4S], ADP
# T1 sequence (Q60I59 1-693): B1 chain
# Text: (§1) Histamine Dehydrogenase (Rsp HDH)
# purified protein [2] = substrate: NCCc1c[nH]cn1; test: purified protein; type: biochemical, Rhizobium sp. 4-9; settings: 1-methoxy PMS electron carrier, glycine buffer pH 9.0, 37 °C
# Text: as §1
# purified protein [3] = substrate: N=C(N)NCCCCN; test: purified protein; type: biochemical, Rhizobium sp. 4-9; settings: 1-methoxy PMS electron carrier, glycine buffer pH 9.0, 37 °C
# Text: as §1
Molecule,Observed Ki [1],Km (purified protein [2]),Km (purified protein [3])
NCCc1c[nH]cn1 [histamine],2059.0 µM,–,–
B1,–,38.24 µM,130.1 µM
B2,–,194.6 µM,112.9 µM
B3,–,159.5 µM,170.1 µM
